From US20170210818A1 (CALIFORNIA INSTITUTE FOR BIOMEDICAL RESEARCH, published 2017)

Target: T1, CD19 on Nalm-6 cells (UniProt P15391 20-556, limits assumed)
T1 construct: whole, on cells; also called Nalm-6 cells (CD19 positive cells)
T1 sequence (looked up): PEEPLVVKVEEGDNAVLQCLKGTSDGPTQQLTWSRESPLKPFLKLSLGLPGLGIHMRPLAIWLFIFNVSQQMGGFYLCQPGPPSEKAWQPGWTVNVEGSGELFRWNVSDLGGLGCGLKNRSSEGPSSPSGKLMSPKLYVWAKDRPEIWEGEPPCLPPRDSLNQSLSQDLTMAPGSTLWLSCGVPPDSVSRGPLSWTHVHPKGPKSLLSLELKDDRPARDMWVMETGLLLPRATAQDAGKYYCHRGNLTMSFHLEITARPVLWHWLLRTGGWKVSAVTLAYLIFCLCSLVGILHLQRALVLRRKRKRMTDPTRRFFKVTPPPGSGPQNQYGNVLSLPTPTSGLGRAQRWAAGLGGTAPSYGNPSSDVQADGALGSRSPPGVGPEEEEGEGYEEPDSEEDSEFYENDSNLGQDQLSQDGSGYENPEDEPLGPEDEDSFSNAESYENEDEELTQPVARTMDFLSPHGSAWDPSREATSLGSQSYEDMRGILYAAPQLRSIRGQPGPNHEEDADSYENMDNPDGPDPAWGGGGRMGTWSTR
Experiment: flow cytometry on Nalm-6 cells, 10 nM, fluorescent anti-human IgG secondary antibody
Experimental: Nalm-6 and K562 cells were cultured according to vendor's protocol. Cells were centrifuged and blocked in 1× PBS with 10% FBS at 4° C. for 1 hour. […] The cell suspensions were shaken for 1 hour at 4° C. The cells were washed 3 times with PBS. The cells were incubated with a secondary antibody (e.g., Fluorescein-anti-human IgG or A488-anti-hIgG) at 4° C. for 1 hour. The cells were washed 3 times with PBS and resuspended in PBS. The cellular fluorescence distribution was determined by flow cytometry.

binding result: binds
B1: anti-CD19ScFv-UCHT1-CL(Fab) (bispecific antibody)
heavy: EVQLQQSGPELVKPGASMKISCKASGYSFTGYTMNWVKQSHGKNLEWMGLINPYKGVSTYNQKFKDKATLTVDKSSSTAYMELLSLTSEDSAVYYCARSGYYGDSDWYFDVWGQGTTLTVFSASTKGPSVFPLAPSSKSTSGGTAALGCLVKDYFPEPVTVSWNSGALTSGVHTFPAVLQSSGLYSLSSVVTVPSSSLGTQTYICNVNHKPSNTKVDKKVEPKSC
light: DIQMTQTTSSLSASLGDRVTISCRASQDIRNYLNWYQQKPDGTVKLLIYYTSRLHSGVPSKFSGSGSGTDYSLTISNLEQEDIATYFCQQGNTLPWTFAGGTKLEIKRTVAAPSVFIFPPSDEQLKSGTASVVCLLNNFYPREAKVQWKVDNALQSGNSQESVTEQDSGGGGSGGGGSGGGGSEVKLQESGPGLVAPSQSLSVTCTVSGVSLPDYGVSWIRQPPRKGLEWLGVIWGSETTYYNSALKSRLTIIKDNSKSQVFLKMNSLQTDDTAIYYCAKHYYYGGSYAMDYWGQGTSVTVSSGGGGSGGGGSGGGGSDIQMTQTTSSLSASLGDRVTISCRASQDISKYLNWYQQKPDGTVKLLIYHTSRLHSGVPSRFSGSGSGTDYSLTISNLEQEDIATYFCQQGNTLPYTFGGGTKLEIGGGGSDSTYSLSSTLTLSKADYEKHKVYACEVTHQGLSSPVTKSFNRGEC
